Changes are numbered by the printed parent chain.
B1: HPrM, HPr from T. aotearoense SCUT27 with Ser46 mutated to Ala, C-terminal His-tag (natural protein)
chain: MTEKTVEIKNKTGLHARPAALFVQAASKFSSQIWVEKENKKVNAKAIMGIMSLGVAQGNTVKLIADGSDEQEAIKTLVDLIDSKFGEE
B2: seryl-phosphorylated HPr (HPrSerP) from T. aotearoense SCUT27 with a C-terminal His-tag (natural protein, Thermoanaerobacterium aotearoense SCUT27, UniProt A0A0S1LJA4 1-88, looked up)
chain: B1 chain with A46S
modifications: phosphoserine at 46
notes: HPr, histidine-containing protein, Thermoanaerobacterium aotearoense SCUT27; ORF of 88 amino acids (ptsH gene, GenBank KR818834); full-length gene cloned into pET30a (NdeI/HindIII); phosphorylated at Ser46; Same chain as m3, phosphorylated at Ser46 by recombinant HPrK/P; also called HPrK/P treated HPr; source: E. coli BL21(DE3), purified (HiTrap Chelating HP, desalting column), phosphorylated in …

Columns and labels:
[1] = biological target: catabolite control protein A (CcpA) from T. aotearoense SCUT27 with a C-terminal His-tag (Thermoanaerobacterium aotearoense SCUT27) (UniProt T1SCF9); test: SPR; SPRi (Plexera V3), 25°C; CcpA printed as spots on gold-coated sensor slides by amine coupling; HPr, HPrSerP or HPrM flowed as analytes at 2 μL/s, association and dissociation 300 s each; PBST pH 7.2 running buffer; BSA as reference; Langmuir binding model
[2] = biological target: T1, HPrK/P (HPr kinase/phosphatase) (Thermoanaerobacterium aotearoense, UniProt A0A0S1LJ76); test: HPr phosphorylation, Phos-tag SDS-PAGE; assay type: biochemical; conditions: 5 mM ATP, 50 uM HPr, 5 mM MgCl2, 10 mM NaCl, 100 mM Tris-Cl pH 7.0, 37 C, 10 min
T1 construct: protein substrate recombinant HPr (KR818834) of the same strain
T1 sequence (A0A0S1LJ76 1-304): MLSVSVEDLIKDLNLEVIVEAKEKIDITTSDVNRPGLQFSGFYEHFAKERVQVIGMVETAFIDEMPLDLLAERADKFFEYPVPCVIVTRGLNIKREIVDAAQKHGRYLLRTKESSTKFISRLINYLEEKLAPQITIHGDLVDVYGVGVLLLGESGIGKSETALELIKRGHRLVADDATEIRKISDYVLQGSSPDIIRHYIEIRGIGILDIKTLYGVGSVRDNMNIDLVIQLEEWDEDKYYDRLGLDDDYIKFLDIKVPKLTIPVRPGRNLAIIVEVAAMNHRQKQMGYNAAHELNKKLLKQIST

[3] = biological target: T2, catabolite control protein A (CcpA) from T. aotearoense SCUT27 with a C-terminal His-tag (Thermoanaerobacterium aotearoense SCUT27, UniProt T1SCF9 1-336); test: SPR; SPRi (Plexera V3), 25°C; CcpA printed as spots on gold-coated sensor slides by amine coupling; HPr, HPrSerP or HPrM flowed as analytes at 2 μL/s, association and dissociation 300 s each; PBST pH 7.2 running buffer; BSA as reference; Langmuir binding model; conditions: both partners purified
T2 construct: CcpA, catabolite control protein A, Thermoanaerobacterium aotearoense SCUT27; ORF of 336 amino acids (ccpA gene, 1011 bp, GenBank KC899078); full-length gene cloned into pET30a (NdeI/XhoI); The genomic primer begins with GTG, the expression primer Tc-F with ATG; Cloning through XhoI of pET30a probably adds LE before the His-tag (surmised); also called pET-CcpA product; source: E. coli BL21(DE3), …
T2 sequence (T1SCF9 entry or part of it): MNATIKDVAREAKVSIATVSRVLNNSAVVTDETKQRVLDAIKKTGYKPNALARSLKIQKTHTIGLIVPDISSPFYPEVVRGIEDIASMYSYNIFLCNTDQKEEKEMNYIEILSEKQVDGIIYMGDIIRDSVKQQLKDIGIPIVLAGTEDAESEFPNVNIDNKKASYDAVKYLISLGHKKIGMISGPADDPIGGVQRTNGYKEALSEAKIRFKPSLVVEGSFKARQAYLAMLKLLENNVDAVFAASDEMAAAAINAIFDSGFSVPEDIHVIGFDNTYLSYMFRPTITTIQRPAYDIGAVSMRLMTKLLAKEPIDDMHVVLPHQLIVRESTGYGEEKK

catabolite control protein A (CcpA) from T. aotearoense SCUT27 with a C-terminal His-tag (Thermoanaerobacterium aotearoense SCUT27), sequence (T1SCF9 entry or part of it): as above

Molecule	Kd [1]	koff [1]	kon [1]	HPr phosphorylation, Phos-tag SDS-PAGE [2]	Kd [3]	koff [3]	kon [3]
Histidine-containing Protein (HPr) from T. aotearoense SCUT27 with a C-terminal His-tag, not phosphorylated (natural protein)	2290 nM	0.000922 s⁻¹	403 M⁻¹ s⁻¹				
Nc1ncnc2c1ncn2[C@@H]1O[C@H](COP(=O)(O)OP(=O)(O)OP(=O)(O)O)[C@@H](O)[C@H]1O [ATP]				HPrK/P lost its kinase activity when there was no ATP in the reaction mixture			
B1					6.01 µM	0.000576 s⁻¹	95.8 M⁻¹ s⁻¹
B2					0.00222 µM	7.78e-07 s⁻¹	350 M⁻¹ s⁻¹
